Measurements: publication PMC6609762

How the values were obtained:
[1] = biological target: SK2aG88‐Pm complex (streptokinase of group G Streptococcus G88 with plasmin) (group G Streptococcus (GGS) strain G88 | human)
[2] = biological target: SK2bALAB49‐Pm complex (streptokinase of group A Streptococcus ALAB49 with plasmin) (group A Streptococcus (GAS) strain ALAB49 | human)
[3] = biological target: SKC2 (2b_(ALAB)‐2aG88‐2b_(ALAB))‐Pm complex (group A Streptococcus (GAS) strain ALAB49 | group G Streptococcus (GGS) strain G88 | human)
[4] = biological target: SKC1 (2aG88‐2b_(ALAB)‐2aG88)‐Pm complex (group G Streptococcus (GGS) strain G88 | group A Streptococcus (GAS) strain ALAB49 | human)
[5] = biological target: SK2aG88‐Pm complex (streptokinase of group G Streptococcus G88 with plasmin) (group G Streptococcus (GGS) strain G88 | human); remark: listed apart in the source
[6] = biological target: SK2bALAB49‐Pm complex (streptokinase of group A Streptococcus ALAB49 with plasmin) (group A Streptococcus (GAS) strain ALAB49 | human); remark: listed apart in the source
[7] = biological target: SKC2 (2b_(ALAB)‐2aG88‐2b_(ALAB))‐Pm complex (group A Streptococcus (GAS) strain ALAB49 | group G Streptococcus (GGS) strain G88 | human); remark: listed apart in the source
[8] = biological target: SKC1 (2aG88‐2b_(ALAB)‐2aG88)‐Pm complex (group G Streptococcus (GGS) strain G88 | group A Streptococcus (GAS) strain ALAB49 | human); remark: listed apart in the source

Molecule	K m of the proteolytic activity (substrate affinity): 100 nM SK, Pg 0.3–5.0 µM as substrate, 0.1 mM S2251, absorbance at 405 nM [1] [nM]	K m of the proteolytic activity (substrate affinity): 100 nM SK, Pg 0.3–5.0 µM as substrate, 0.1 mM S2251, absorbance at 405 nM [2] [µM]	K m of the proteolytic activity (substrate affinity): 100 nM SK, Pg 0.3–5.0 µM as substrate, 0.1 mM S2251, absorbance at 405 nM [3] [µM]	K m of the proteolytic activity (substrate affinity): 100 nM SK, Pg 0.3–5.0 µM as substrate, 0.1 mM S2251, absorbance at 405 nM [4] [µM]	retained activity (S‐2251 hydrolysis) of the SK‐Pm complex (20 nM) after 15 min with α2‐AP 100–400 nM, relative to no inhibitor; value at 400 nM [5] [%]	retained activity (S‐2251 hydrolysis) of the SK‐Pm complex (20 nM) after 15 min with α2‐AP 100–400 nM, relative to no inhibitor; value at 400 nM [6] [%]	retained activity (S‐2251 hydrolysis) of the SK‐Pm complex (20 nM) after 15 min with α2‐AP 100–400 nM, relative to no inhibitor; value at 400 nM [7] [%]	retained activity (S‐2251 hydrolysis) of the SK‐Pm complex (20 nM) after 15 min with α2‐AP 100–400 nM, relative to no inhibitor; value at 400 nM [8] [%]
plasminogen (natural protein)	770	7.92	3.45	2.05				
alpha 2‐antiplasmin (natural protein) NQEQVSPLTLLKLGNQEPGGQTALKSPPGVCSRDPTPEQTHRLARAMMAFTADLFSLVAQTSTCPNLILSPLSVALALSHLALGAQNHTLQRLQQVLHAGSGPCLPHLLSRLCQDLGPGAFRLAARMYLQKGFPIKEDFLEQSEQLFGAKPVSLTGKQEDDLANINQWVKEATEGKIQEFLSGLPEDTVLLLLNAIHFQGFWRNKFDPSLTQRDSFHLDEQFTVPVEMMQARTYPLRWFLLEQPEIQVAHFPFKNNMSFVVLVPTHFEWNVSQVLANLSWDTLHPPLVWERPTKVRLPKLYLKHQMDLVATLSQLGLQELFQAPDLRGISEQSLVVSGVQHQSTLELSEVGVEAAAATSIAMSRMSLSSFSVNRPFLFFIFEDTTGLPLFVGSVRNPNPSAPRELKEQQDSPGNKDFLQSLKGFPRGDKLFGPDLKLVPPMEEDYPQFGSPK					80	50	80	50
